The values that follow come from PMC6836825, “K^+ Channel-SEC11 Binding Exchange Regulates SNARE Assembly for Secretory Traffic^1” (Plant Physiology, 2019).

The test concerns the target T1, Flag3-SNAP33-6His (Arabidopsis thaliana, UniProt Q9S7P9 1-300).
T1 construct: Qbc-SNARE SNAP33, Arabidopsis thaliana, At5G61210; not shown: Flag3, N-terminal, kept; 6His, C-terminal, kept
T1 sequence (looked up): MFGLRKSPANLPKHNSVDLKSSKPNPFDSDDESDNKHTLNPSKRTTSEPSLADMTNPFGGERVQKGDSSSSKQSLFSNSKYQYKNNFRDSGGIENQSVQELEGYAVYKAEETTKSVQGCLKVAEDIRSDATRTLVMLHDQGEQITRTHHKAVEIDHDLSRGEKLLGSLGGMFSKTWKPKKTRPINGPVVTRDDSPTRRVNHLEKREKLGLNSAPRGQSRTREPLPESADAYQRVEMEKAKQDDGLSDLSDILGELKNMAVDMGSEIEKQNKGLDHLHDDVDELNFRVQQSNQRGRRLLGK
Nature of the test: pull-down; KC1^67–91-Flag3-StrepII or KAT1^1–63-Flag6-StrepII immobilised on Strep-Tactin resin; one prey at a time in 3-fold excess; overnight at 4°C; SDS-PAGE, Coomassie. The note with it: both partners purified.

B1: KAT1^1–63-Flag6-StrepII (domain or fragment, Arabidopsis thaliana, UniProt Q39128 1-63, looked up)
chain: MSISWTRNFFERFCVEEYNIDTIKQSSFLSADLLPSLGARINQSTKLRKHIISPFNPRYRAWE
notes: KAT1 K+ channel, Arabidopsis thaliana, At5g46240, N-terminal cytosolic domain residues 1-63; also called KAT1^1–63 peptide; KAT1^1–63-6flag-StrepII; not shown: Flag6, C-terminal, kept; StrepII, C-terminal, kept
Take B1: the binding result is “binds”.

B2: KC1^67–91-Flag3-StrepII (domain or fragment, Arabidopsis thaliana, UniProt P92960 67-91, looked up)
chain: IEDDNPSSKPFIVLHFDRRYRLWEL
notes: KC1 K+ channel subunit, Arabidopsis thaliana, At4g32650, N-terminal cytosolic domain residues 67-91; also called KC1^67–91 peptide; KC1^67–91-3flag-StrepII; not shown: Flag3, C-terminal, kept; StrepII, C-terminal, kept
As to B2, the binding result is listed as “binds”.
